This is an account of results in patent publication US20240287163A1 (Chugai, published 2024).

The target of assay [1] is T1, recombinant human C1r2s2 tetramer (human, UniProt P09871 16-688; P00736 18-705).
T1 construct: C1s and C1r co-expressed in HEK293 and purified from the supernatant as tetramer; also called hC1r2s2
T1 chain 1: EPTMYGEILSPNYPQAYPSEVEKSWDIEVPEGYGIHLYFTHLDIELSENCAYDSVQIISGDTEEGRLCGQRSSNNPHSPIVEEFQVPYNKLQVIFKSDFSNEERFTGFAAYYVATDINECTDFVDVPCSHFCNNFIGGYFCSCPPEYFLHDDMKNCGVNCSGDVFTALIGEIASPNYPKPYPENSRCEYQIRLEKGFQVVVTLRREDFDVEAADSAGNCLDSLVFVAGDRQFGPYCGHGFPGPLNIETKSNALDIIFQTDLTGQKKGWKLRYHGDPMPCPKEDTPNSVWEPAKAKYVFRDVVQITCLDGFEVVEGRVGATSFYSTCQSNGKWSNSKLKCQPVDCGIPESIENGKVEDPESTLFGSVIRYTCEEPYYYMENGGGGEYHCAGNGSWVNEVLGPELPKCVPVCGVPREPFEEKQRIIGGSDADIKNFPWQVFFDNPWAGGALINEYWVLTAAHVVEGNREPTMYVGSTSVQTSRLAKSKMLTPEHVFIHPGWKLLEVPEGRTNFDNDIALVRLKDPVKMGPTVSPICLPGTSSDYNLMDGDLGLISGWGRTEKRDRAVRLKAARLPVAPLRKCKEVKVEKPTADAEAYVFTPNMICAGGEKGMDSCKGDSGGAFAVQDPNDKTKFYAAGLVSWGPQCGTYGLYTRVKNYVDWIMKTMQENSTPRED
T1 chain 2: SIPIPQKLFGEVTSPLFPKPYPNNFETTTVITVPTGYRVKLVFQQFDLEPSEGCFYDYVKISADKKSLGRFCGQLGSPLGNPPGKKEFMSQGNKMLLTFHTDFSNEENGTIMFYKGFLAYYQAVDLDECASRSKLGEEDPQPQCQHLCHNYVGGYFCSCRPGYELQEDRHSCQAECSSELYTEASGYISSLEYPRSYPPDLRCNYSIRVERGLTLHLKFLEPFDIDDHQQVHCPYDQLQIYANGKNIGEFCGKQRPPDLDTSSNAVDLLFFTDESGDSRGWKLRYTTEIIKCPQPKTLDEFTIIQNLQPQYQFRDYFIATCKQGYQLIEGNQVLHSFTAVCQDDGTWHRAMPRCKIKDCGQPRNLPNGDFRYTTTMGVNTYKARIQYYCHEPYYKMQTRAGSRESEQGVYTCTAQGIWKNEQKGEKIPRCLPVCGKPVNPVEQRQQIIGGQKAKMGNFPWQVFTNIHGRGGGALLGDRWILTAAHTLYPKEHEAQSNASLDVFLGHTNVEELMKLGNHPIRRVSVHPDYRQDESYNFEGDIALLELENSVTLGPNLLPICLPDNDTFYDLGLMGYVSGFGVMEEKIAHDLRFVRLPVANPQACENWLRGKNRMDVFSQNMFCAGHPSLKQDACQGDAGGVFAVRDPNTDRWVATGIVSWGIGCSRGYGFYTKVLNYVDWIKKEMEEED
Briefly: SPR (Biacore T200), 37 C, pH 7.4; hC1r2s2 captured by IPN009, antibody as analyte. The protocol:
(§1) The binding property of each sample at pH7.4 and pH6.0 was determined at 37° C. using BIACORE® T200 instrument (Cytiva). […] 20 mM ACES, 150 mM NaCl, 1.2 mM CaCl₂, 1 mg/mL BSA (not containing IgG), 1 mg/mL CMD, 0.05% Tween® 20, 0.005 w/v % NaN₃, pH7.4 or pH6.0 buffer was used as the running buffer. […] The antibody solution was added thereto at 30 μL/min for 120 seconds, the running buffer was then added at 30 μL/min for 180 seconds, and the dissociation constant (KD) of each antibody for hC1r2s2 and cyC1r2s2 was calculated. […] The sensor surface was regenerated every cycle, using 3 M MgCl2 (prepared in-house). The KD value was calculated using BIACORE® T200 evaluation software version 2.0 (Cytiva). The binding strengths under each pH condition were compared by dividing the KD value at pH6.0 with the KD value at pH7.4.
On the technique in general: Surface plasmon resonance follows binding to a sensor surface in real time, without labels.

Assay [2] has as its target T2, recombinant cynomolgus C1r2s2 tetramer (cynomolgus monkey, limits assumed).
T2 construct: also called cyC1r2s2; monkey C1r2s2
T2 chain 1: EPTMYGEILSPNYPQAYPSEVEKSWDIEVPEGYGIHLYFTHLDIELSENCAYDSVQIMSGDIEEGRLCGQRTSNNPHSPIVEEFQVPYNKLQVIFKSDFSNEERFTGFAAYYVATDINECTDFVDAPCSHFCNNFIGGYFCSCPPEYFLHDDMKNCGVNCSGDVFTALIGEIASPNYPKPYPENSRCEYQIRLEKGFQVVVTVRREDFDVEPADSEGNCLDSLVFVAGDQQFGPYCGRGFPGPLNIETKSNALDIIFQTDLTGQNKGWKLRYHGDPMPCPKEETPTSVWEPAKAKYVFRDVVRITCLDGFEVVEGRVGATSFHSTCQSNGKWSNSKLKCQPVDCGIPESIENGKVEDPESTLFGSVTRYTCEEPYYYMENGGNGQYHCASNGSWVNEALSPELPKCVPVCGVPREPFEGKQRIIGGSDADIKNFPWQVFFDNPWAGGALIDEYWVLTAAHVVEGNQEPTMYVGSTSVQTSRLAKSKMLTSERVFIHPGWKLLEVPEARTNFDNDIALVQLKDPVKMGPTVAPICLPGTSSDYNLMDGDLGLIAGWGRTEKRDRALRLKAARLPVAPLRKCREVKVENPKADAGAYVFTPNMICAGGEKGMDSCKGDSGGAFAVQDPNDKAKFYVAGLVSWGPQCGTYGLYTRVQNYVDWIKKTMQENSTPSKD
T2 chain 2: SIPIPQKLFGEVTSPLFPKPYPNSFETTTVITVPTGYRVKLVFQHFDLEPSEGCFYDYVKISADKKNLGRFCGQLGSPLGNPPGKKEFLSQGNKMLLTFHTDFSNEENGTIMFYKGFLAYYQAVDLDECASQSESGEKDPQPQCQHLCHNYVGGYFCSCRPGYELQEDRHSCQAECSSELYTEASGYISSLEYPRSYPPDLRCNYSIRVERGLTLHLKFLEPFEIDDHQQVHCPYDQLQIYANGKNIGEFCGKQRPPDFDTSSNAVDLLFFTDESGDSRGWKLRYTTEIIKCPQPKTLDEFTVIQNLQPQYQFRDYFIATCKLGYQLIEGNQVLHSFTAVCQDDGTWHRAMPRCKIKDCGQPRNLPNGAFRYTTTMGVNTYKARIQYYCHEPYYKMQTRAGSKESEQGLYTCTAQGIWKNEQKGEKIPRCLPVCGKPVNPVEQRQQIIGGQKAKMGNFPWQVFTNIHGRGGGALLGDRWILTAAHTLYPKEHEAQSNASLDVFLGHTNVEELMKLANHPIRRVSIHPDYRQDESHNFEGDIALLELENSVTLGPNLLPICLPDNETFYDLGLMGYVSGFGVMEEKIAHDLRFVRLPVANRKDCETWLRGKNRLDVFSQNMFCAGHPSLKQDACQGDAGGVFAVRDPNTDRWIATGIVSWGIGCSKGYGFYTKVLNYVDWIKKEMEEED
Kind of assay: SPR (Biacore T200), 37 C, pH 6.0; cyC1r2s2 captured by IPN009, antibody as analyte. How it is done: as §1

In assay [3] the target is T2, recombinant cynomolgus C1r2s2 tetramer. Briefly: SPR (Biacore T200), 37 C; ratio of KD at pH 6.0 to KD at pH 7.4. The protocol:
as §1

In assay [4] the target is T1, recombinant human C1r2s2 tetramer. The assay is described as above. How it is done: as §1
For assay [5] the target is unchanged. Kind of assay: SPR (Biacore T200), 37 C, pH 6.0; hC1r2s2 captured by IPN009, antibody as analyte. The protocol: as §1
Assay [6] concerns the target T2, recombinant cynomolgus C1r2s2 tetramer. Kind of assay: SPR (Biacore T200), 37 C, pH 7.4; cyC1r2s2 captured by IPN009, antibody as analyte. How it is done:
as §1

B1: COS0637pHv16-G1A3FcgSil+LowpI (antibody, V domains shown)
VH: QVQLVESGGGVVQPGRSLRLSCAASGFTFSAYTMNWIRQPPGKGLEWIGLIYGSGHEFYASWAEERVTISVDTSKNQFSLKLSSVTAADTAVYYCARGRSKNYNSDFHLWGQGTLVTVSS
VL: DIQMTQSPSSLSASVGDRVTITCQAHEILHDKKNLAWYQQKPGQPPKLLIYGASQRESGVPSRFSGSGSGTDFTLTISSLQPEDFATYYCHGEFPHSSADLNHFGQGTKVEIKR
notes: VH 36, VL 55, CH 45, CL 23
With B1, the Kd was 0.181 nM in assay [1], 91.2 nM in assay [2], 29.2 nM in assay [5] and 0.196 nM in assay [6]. The “KD (pH 6.0)/KD (pH 7.4)” value in assay [3] turned out to be 465; in assay [4], 161.

B2: COS0637pHv25-G1A3FcgSil+LowpI (antibody, V domains shown)
VH: QVQLVESGGGVVQPGRSLRLSCAASGFTFSAYAMNWIRQPPGKGLEWIGLMYGSGHEFYASWAEERVTISVDTSKNQFSLKLSSVTAADTAVYYCARGRSKNYNSDFHLWGQGTLVTVSS
VL: DIQMTQSPSSLSASVGDRVTITCQAHEILHDKKNLAWYQQKPGQPPKLLIYGASQRESGVPSRFSGSGSGTDFTLTISSLQPEDFATYYCHGEFPHSSADLNHFGQGTKVEIKR
notes: VH 32, VL 55, CH 45, CL 23
On to B2, for which the Kd was determined as 0.198 nM in assay [1], 67.1 nM in assay [2], 21.3 nM in assay [5] and 0.243 nM in assay [6]. Moreover, the “KD (pH 6.0)/KD (pH 7.4)” value in assay [3] amounted to 276; in assay [4] it was 108.

B3: COS0637pHv23-G1A3FcgSil+LowpI (antibody, V domains shown)
VH: QVQLVESGGGVVQPGRSLRLSCAASGFTFSAYAMNWIRQPPGKGLEWIGLIYGTGHEFYASWAEERVTISVDTSKNQFSLKLSSVTAADTAVYYCARGRSKNYNSDFHIWGQGTLVTVSS
VL: DIQMTQSPSSLSASVGDRVTITCQAHEILHDKKNLAWYQQKPGQPPKLLIYSASILESGVPSRFSGSGSGTDFTLTISSLQPEDFATYYCHGEFSHGSADLNHFGQGTKVEIKR
notes: VH 28, VL 51, CH 45, CL 23
On to B3, for which the Kd in assay [1] turned out to be 0.249 nM; in assay [2] it was 46.3 nM; in assay [5], 27.4 nM; in assay [6], 0.334 nM. Moreover, the “KD (pH 6.0)/KD (pH 7.4)” value in assay [3] turned out to be 139; in assay [4] it was 110.

B4: COS0637pHv21-G1A3FcgSil+LowpI (antibody, V domains shown)
VH: QVQLVESGGGVVQPGRSLRLSCAASGFTFSAYAMNWIRQPPGKGLEWIGLIYGSGHEFYASWAEERVTISVDTSKNQFSLKLSSVTAADTAVYYCARGRSKNYNSDFHLWGQGTLVTVSS
VL: DIQMTQSPSSLSASVGDRVTITCQAHEILHDKKNLAWYQQKPGQPPKLLIYSASILESGVPSRFSGSGSGTDFTLTISSLQPEDFATYYCHGEFSHGSGDLNHFGQGTKVEIKR
notes: VH 24, VL 47, CH 45, CL 23
B4: the Kd worked out at 0.26 nM in assay [1], 62.9 nM in assay [2], 31.3 nM in assay [5] and 0.346 nM in assay [6]. Further, the “KD (pH 6.0)/KD (pH 7.4)” value worked out at 182 in assay [3] and 120 in assay [4].

The Kd is the concentration at which binding is half-saturated.
